First the molecules themselves.
B1: S27K, I150N, S171N, S173P, G174R, S175P, F180Y, Q198, ET297P: TY145 protease (SEQ ID NO 3) variant with these substitutions (protein, listed as Bacillus sp.)
chain: AVPSTQTPWGIKSIYNDQSITKTTGGKGIKVAVLDTGVYTSHLDLAGSAEQCKDFTQSNPLVDGSCTDRQGHGTHVAGTVLAHGGSNGQGVYGVAPQAKLWAYKVLGDNGSGYSDDIAAAIRHVADEASRTGSKVVINMSLGSSAKDSLNASAVDYAYGKGVLIVAAAGNNGPRPNTIGYPGGLVNAVAVAALENVQENGTYRVADFSSRGNPATAGDYIIQERDIEVSAPGASVESTWYTGGYNTISGTSMATPHVAGLAAKIWSANTSLSHSQLRTELQNRAKVYDIKGGIGAGPGDDYASGFGYPRVK
B2: S27K, S171N, S173P, G174R, S175P, F180Y, L184F, Q198E, T297P: TY145 protease (SEQ ID NO 3) variant with these substitutions (protein, listed as Bacillus sp.)
chain: B1 chain with N150I, L184F
B3: S173P, S175P, I178Y, F180Y: TY145 protease (SEQ ID NO 3) variant with these substitutions (protein, listed as Bacillus sp.)
chain: B1 chain with K27S, N150I, N171S, R174G, I178Y, E198Q, P297T
B4: S27K, K146P, S148R, A151R, S171N, S173P, G174R, S175P, F180Y, Q198E, N199K, T297P: TY145 protease (SEQ ID NO 3) variant with these substitutions (protein, listed as Bacillus sp.)
chain: B1 chain with K146P, S148R, N150I, A151R, N199K
B5: S173P, S175P, F180Y, L184F: TY145 protease (SEQ ID NO 3) variant with these substitutions (protein, listed as Bacillus sp.)
chain: B1 chain with K27S, N150I, N171S, R174G, L184F, E198Q, P297T
B6: S27K, S171N, S173P, G174R, S175P, F180Y, L184Y, Q198E, T297P: TY145 protease (SEQ ID NO 3) variant with these substitutions (protein, listed as Bacillus sp.)
chain: B1 chain with N150I, L184Y
B7: S27K, I121V, S171N, S173P, G174R, S175P, F180Y, L184F, Q198E, T297P: TY145 protease (SEQ ID NO 3) variant with these substitutions (protein, listed as Bacillus sp.)
chain: B1 chain with I121V, N150I, L184F
B8: S173P, S175P, I178F, F180Y: TY145 protease (SEQ ID NO 3) variant with these substitutions (protein, listed as Bacillus sp.)
chain: B1 chain with K27S, N150I, N171S, R174G, I178F, E198Q, P297T
B9: S173P, S175P, N176Y, F180Y: TY145 protease (SEQ ID NO 3) variant with these substitutions (protein, listed as Bacillus sp.)
chain: B1 chain with K27S, N150I, N171S, R174G, N176Y, E198Q, P297T
B10: S173P, S175P, F180Y, L184Y: TY145 protease (SEQ ID NO 3) variant with these substitutions (protein, listed as Bacillus sp.)
chain: B1 chain with K27S, N150I, N171S, R174G, L184Y, E198Q, P297T
B11: S27K, S173P, G174K, S175P, F180Y, L184Y, Q198E, N199K, T297P: TY145 protease (SEQ ID NO 3) variant with these substitutions (protein, listed as Bacillus sp.)
chain: B1 chain with N150I, N171S, R174K, L184Y, N199K
B12: S27K, Q70N, G107N, I121V, E127Q, S173P, S175P, F180Y, L184F, Q198E, T297P: TY145 protease (SEQ ID NO 3) variant with these substitutions (protein, listed as Bacillus sp.)
chain: B1 chain with Q70N, G107N, I121V, E127Q, N150I, N171S, R174G, L184F
B13: S173P, S175P, F180Y, L184W: TY145 protease (SEQ ID NO 3) variant with these substitutions (protein, listed as Bacillus sp.)
chain: B1 chain with K27S, N150I, N171S, R174G, L184W, E198Q, P297T
B14: S173P, S175P, F180Y, L184D: TY145 protease (SEQ ID NO 3) variant with these substitutions (protein, listed as Bacillus sp.)
chain: B1 chain with K27S, N150I, N171S, R174G, L184D, E198Q, P297T
B15: S27K, S173P, G174K, S175P, F180Y, L184Y, Q197K, Q198E, T297P: TY145 protease (SEQ ID NO 3) variant with these substitutions (protein, listed as Bacillus sp.)
chain: B1 chain with N150I, N171S, R174K, L184Y, Q197K
B16: S173P, S175P, I178P, F180Y: TY145 protease (SEQ ID NO 3) variant with these substitutions (protein, listed as Bacillus sp.)
chain: B1 chain with K27S, N150I, N171S, R174G, I178P, E198Q, P297T
B17: S173P, S175P, F180Y, R224D: TY145 protease (SEQ ID NO 3) variant with these substitutions (protein, listed as Bacillus sp.)
chain: B1 chain with K27S, N150I, N171S, R174G, E198Q, R224D, P297T
B18: S27K, S173P, G174K, S175P, F180Y, L184F, Q198E, N199K, T297P: TY145 protease (SEQ ID NO 3) variant with these substitutions (protein, listed as Bacillus sp.)
chain: B1 chain with N150I, N171S, R174K, L184F, N199K
B19: S173P, S175P, F180Y, R224G: TY145 protease (SEQ ID NO 3) variant with these substitutions (protein, listed as Bacillus sp.)
chain: B1 chain with K27S, N150I, N171S, R174G, E198Q, R224G, P297T
B20: S27K, S173P, G174K, S175P, F180Y, L184F, Q198E, N199R, T297P: TY145 protease (SEQ ID NO 3) variant with these substitutions (protein, listed as Bacillus sp.)
chain: B1 chain with N150I, N171S, R174K, L184F, N199R
B21: S27K, S171N, S173P, G174R, S175P, F180Y, L184W, Q198E, T297P: TY145 protease (SEQ ID NO 3) variant with these substitutions (protein, listed as Bacillus sp.)
chain: B1 chain with N150I, L184W

Changes are numbered by the printed parent chain. Names and notes keep the numbering of the source. Values joined by “and” are separate entries in the source; they are usually repeats but may differ in a detail not shown here. Equal values may be shown once.

The assay is described as follows: Determination of binding constants of inhibitor (NNIC) in Model B detergent, Suc-AAPF-pNA read-out. Particulars: Ki of variant with the mutation relative to variant without the mutation, <1.0 beneficial. Type of assay: biochemical. How it is done: Purified protease variants are pre-diluted to approximately 0.2 mg/ml in dilution buffer. 40 μl diluted protease is then mixed with 40 μl inhibitor solution (Z-Gly-Ala-NHCH(CH2C6H4pOH)C(OH)(SO3Na)—H, wherein Z is benzyloxycarbonyl) or 40 μl 4-FPBA solution in the well of a 96 well microtiter plate (Nunc F 96-MTP). […] After 10 min mixing of protease and inhibitor at room temperature, 30 μl of the mixture is transferred to a microtiter plate (Nunc U96 PP 0.5 ml) with 270 μl Model B detergent in the wells resulting in inhibitor concentrations of 0-30 μM and 4-FPBA concentrations of 0-6000 μM. Protease, inhibitor and detergent is mixed for 1 hour using magnetic bars for 1 hour at room temperature to reach equilibrium. Then 20 μl is transferred to a microtiter plate (Nunc F 96-MTP). 100 μl substrate solution is added and after 5 sec mixing absorbance at 405 nm is measured every 20 sec for 5 min on a SpectraMax Plus reader. Slope from linear regression of initial increase in absorbance at 405 nm is used for calculation of apparent binding constants.
It is assumed that protease and inhibitor react according to the equation: E+I ? EI
Where E is the protease, I is the inhibitor and EI is the protease-inhibitor complex. […] The concentration of enzyme-inhibitor in the detergent solution is then given by:
where Etot is the total protease concentration ([Etot]=[E]+[EI]), Itot is the total inhibitor concentration ([Itot]=[I]+[EI]), and Ki is the equilibrium binding constant for the reaction. The measured slopes V are given by:
where V0 is the slope without inhibitor added. To calculate apparent binding constant Ki least square fitting of measured slopes at various inhibitor concentrations to this equation is performed with Ki and V0 as variables.
The Ki for the parent protease and for each variant was calculated as described above
Having the Ki for each variant, it is possible to calculate the effect of a single mutation, if data are available for at least two variants that differ only by that mutation. In this case, the relative Ki for the mutation is calculated:
[formula] A lower Ki is desirable, as a satisfactory inhibition can be obtained at a lower inhibitor concentration, so beneficial mutations have a relative Ki<1.0 The following table show such relative Kimutation. Each row show: • a mutation (column 1: “Mutation”) • a protease variant (relative to SEQ ID NO: 2) that comprise the mutation from column 1 (column 2: “Variant with the mutation”) • another protease variant (relative to SEQ ID NO: 2), that differs from the one in column 2 only by not having the mutation in column 1 (column 3: “Variant without the mutation”) • Relative Kimutation for the mutation in column 1, in the context of the variant in column 3, measured in Model B detergent (column 4: “inhibitor binding in Model B”) • Relative Kimutation for the mutation in column 1, in the context of the variant in column 3, measured in Tris buffer at pH 8 (column 5: “inhibitor binding in Tris buffer pH 8”)
Ki were calculated as shown in Example 3. The Improvement Factor (IF) or Relative
Regarding B1, the “Inhibitor-binding relative Kimutation, inhibitor binding in Model B” value (“Inhibitor-binding relative Kimutation” for short) is on record as 0.24.

Turning to B2, the “Inhibitor-binding relative Kimutation” value is given as 0.18.

On to B3, for which the “Inhibitor-binding relative Kimutation” value stood at 0.53.

B4: the “Inhibitor-binding relative Kimutation” value worked out at 0.75.

As for B5, the “Inhibitor-binding relative Kimutation” value was 0.31 and 0.27.

With B6, the “Inhibitor-binding relative Kimutation” value is 0.18.

B7: the “Inhibitor-binding relative Kimutation” value was 0.30.

With B8, the “Inhibitor-binding relative Kimutation” value is 0.50 and 0.49.

Turning to B9, the “Inhibitor-binding relative Kimutation” value amounted to 0.81.

Consider B10, for which the “Inhibitor-binding relative Kimutation” value amounted to 0.24.

As for B11, the “Inhibitor-binding relative Kimutation” value amounted to 0.21.

As to B12, the “Inhibitor-binding relative Kimutation” value is reported as 0.37.

As to B13, the “Inhibitor-binding relative Kimutation” value came to 0.50.

B14: the “Inhibitor-binding relative Kimutation” value was 0.37.

On to B15, for which the “Inhibitor-binding relative Kimutation” value came to 0.32.

As to B16, the “Inhibitor-binding relative Kimutation” value is 0.51.

B17: the “Inhibitor-binding relative Kimutation” value was found to be 0.36.

In the case of B18, the “Inhibitor-binding relative Kimutation” value worked out at 0.36.

For the molecule B19, the “Inhibitor-binding relative Kimutation” value turned out to be 0.47.

For the molecule B20, the “Inhibitor-binding relative Kimutation” value was found to be 0.22.

B21: the “Inhibitor-binding relative Kimutation” value is 0.57.

The values are drawn from US10400230B2, “Protease variants and polynucleotides encoding same” (NOVOZYMES A/S, priority 2014, dated 2019).
